Source: patent US20230039401A1 (ATYR PHARMA, published 2023)

Columns and labels:
[1] = target: T1, NRP2-Fc (R&D Systems #2215-N2) (human, UniProt O60462 23-864, limits assumed); experiment: SPR (column: Binding to NRP2 observed by SPR)
T1 construct: Bought reagent; also called human NRP2; Neuropilin 2; not shown: Fc of the bought fusion

[2] = target: T1, NRP2-Fc (R&D Systems #2215-N2); experiment: SPR, MARS Fc-WHEP immobilised, 20 nM NRP2 as analyte
[3] = target: T1, NRP2-Fc (R&D Systems #2215-N2); experiment: SPR, WARS WHEP immobilised, 20 nM NRP2 as analyte
[4] = target: T2, NRP2a-GFP fusion protein on HEK293T cells (human, UniProt O60462 23-931); experiment: immunofluorescence microscopy, competition on HEK293T cells overexpressing NRP2v2-GFP, GFP Bright gate; VEGF-C titrated, competitor 175 nM Fc-HRS(2-60)/anti-Fc-PE
T2 construct: Transiently transfected HEK293T cells, fixed before staining; also called NRP2v2-GFP; cell-expressed NRP2a; not shown: GFP and any linker of the Origene clone
Procedure: HEK293T cells previously transfected with NRP2v2-GFP were passed the night before staining to 96 well Greiner Clear flat bottomed Microplates pre-coated with collagen coating solution. Supernatants were removed and cells were washed 1 time with binding buffer. Cells were then fixed with 50 μL of 3.7% methanol-free formaldehyde for 20 minutes at room temperature. Cells were washed 2× with binding buffer and then blocked with 100 μL of blocking buffer for 1 hour at room temperature. The cells were then washed one time with binding buffer and then incubated with 50 μL of staining complex overnight at 4 degrees Celsius. […] The Hoechst stain was replaced with 1×PBS and subsequently read on an IN Cell Analyzer 2200. 20× images were acquired and analyzed using In Cell Analyzer 1000 Workstation software. Segmentation of the cell mask was achieved using the GFP channel, and the average PE signal intensity was determined within this mask above a threshold intensity of 5000 (termed GFP Bright cells).

[5] = target: T1, NRP2-Fc (R&D Systems #2215-N2); experiment: SPR, GARS Fc-WHEP immobilised, 20 nM NRP2 as analyte

B1: VEGF-A145 (R&D Systems #7626-VE-CF) (ligand, human, UniProt P15692-6 27-171, looked up)
chain: APMAEGGGQNHHEVVKFMDVYQRSYCHPIETLVDIFQEYPDEIEYIFKPSCVPLMRCGGCCNDEGLECVPTEESNITMQIMRIKPHQGQHIGEMSFLQHNKCECRPKKDRARQEKKSVRGKGKGQKRKRKKSRYKSWSVCDKPRR
B1: no binding [1].

B2: MARS Fc-WHEP (Fc fusion, UniProt P56192 841-897, looked up)
chain: QIQALMDEVTKQGNIVRELKAQKADKNEVAAEVAKLLDLKKQLAVAEGKPPEAPKGK
notes: domain: WHEP domain; also called Fc domain fused to the WHEP domain of MARS; not shown: Fc domain
B2: no binding (tested: 20 nM) [2].

B3: WARS WHEP (other, UniProt P23381 8-64, looked up)
chain: SLLELFNSIATQGELVRSLKAGNASKDEIDSAVKMLVSLKMSYKAAAGEDYKADCPP
notes: domain: WHEP domain; also called WHEP domain of WARS with a V5/His tag; not shown: V5/His tag
B3: no binding (tested: 20 nM) [3].

B4: Recombinant Human VEGF-C Protein (R&D Systems cat 2179-VC-025/CF) (ligand, UniProt P49767 103-227, looked up)
chain: TEETIKFAAAHYNTEILKSIDNEWRKTQCMPREVCIDVGKEFGVATNTFFKPPCVSVYRCGGCCNSEGLQCMNTSTSYLSKTLFEITVPLSQGPKPVTISFANHTSCRCMSKLDVYRQVHSIIRR
notes: Reagent of the cell immunofluorescence assay; Its catalogue number differs from that of the SPR reagent
In the case of B4, the “IC50 (read off the curve)” value [4] is reported as roughly 2 nM.

B5: GARS Fc-WHEP (Fc fusion, UniProt P41250 63-119, looked up)
chain: VLAPLRLAVRQQGDLVRKLKEDKAPQVDVDKAVAELKARKRVLEAKELALQPKDDIV
notes: domain: WHEP domain; also called Fc domain fused to the WHEP domain of GARS; not shown: Fc domain
B5: no binding (tested: 20 nM) [5].

B6: VEGF-A121 (Peprotech #100-20A) (ligand, human, UniProt P15692-9 27-147, looked up)
chain: APMAEGGGQNHHEVVKFMDVYQRSYCHPIETLVDIFQEYPDEIEYIFKPSCVPLMRCGGCCNDEGLECVPTEESNITMQIMRIKPHQGQHIGEMSFLQHNKCECRPKKDRARQEKCDKPRR
B6: no binding [1].
